Data from article PMC3702553 (2013).

B1: full length wild-type GST-SNX9 (sorting nexin 9) [not stated] / clathrin heavy chain (CHC) [human (endogenous in HeLa)] (parent complex)
chain 1: MATKARVMYDFAAEPGNNELTVNEGEIITITNPDVGGGWLEGRNIKGERGLVPTDYVEILPSDGKDQFSCGNSVADQAFLDSLSASTAQASSSAASNNHQVGSGNDPWSAWSASKSGNWESSEGWGAQPEGAGAQRNTNTPNNWDTAFGHPQAYQGPATGDDDDWDEDWDGPKSSSYFKDSESADAGGAQRGNSRASSSSMKIPLNKFPGFAKPGTEQYLLAKQLAKPKEKIPIIVGDYGPMWVYPTSTFDCVVADPRKGSKMYGLKSYIEYQLTPTNTNRSVNHRYKHFDWLYERLLVKFGSAIPIPSLPDKQVTGRFEEEFIKMRMERLQAWMTRMCRHPVISESEVFQQFLNFRDEKEWKTGKRKAERDELAGVMIFSTMEPEAPDLDLVEIEQKCEAVGKFTKAMDDGVKELLTVGQEHWKRCTGPLPKEYQKIGKALQSLATVFSSSGYQGETDLNDAITEAGKTYEEIASLVAEQPKKDLHFLMECNHEYKGFLGCFPDIIGTHKGAIEKVKESDKLVATSKITLQDKQNMVKRVSIMSYALQAEMNHFHSNRIYDYNSVIRLYLEQQVQFYETIAEKLRQALSRFPVM
chain 2: MAQILPIRFQEHLQLQNLGINPANIGFSTLTMESDKFICIREKVGEQAQVVIIDMNDPSNPIRRPISADSAIMNPASKVIALKAGKTLQIFNIEMKSKMKAHTMTDDVTFWKWISLNTVALVTDNAVYHWSMEGESQPVKMFDRHSSLAGCQIINYRTDAKQKWLLLTGISAQQNRVVGAMQLYSVDRKVSQPIEGHAASFAQFKMEGNAEESTLFCFAVRGQAGGKLHIIEVGTPPTGNQPFPKKAVDVFFPPEAQNDFPVAMQISEKHDVVFLITKYGYIHLYDLETGTCIYMNRISGETIFVTAPHEATAGIIGVNRKGQVLSVCVEEENIIPYITNVLQNPDLALRMAVRNNLAGAEELFARKFNALFAQGNYSEAAKVAANAPKGILRTPDTIRRFQSVPAQPGQTSPLLQYFGILLDQGQLNKYESLELCRPVLQQGRKQLLEKWLKEDKLECSEELGDLVKSVDPTLALSVYLRANVPNKVIQCFAETGQVQKIVLYAKKVGYTPDWIFLLRNVMRISPDQGQQFAQMLVQDEEPLADITQIVDVFMEYNLIQQCTAFLLDALKNNRPSEGPLQTRLLEMNLMHAPQVADAILGNQMFTHYDRAHIAQLCEKAGLLQRALEHFTDLYDIKRAVVHTHLLNPEWLVNYFGSLSVEDSLECLRAMLSANIRQNLQICVQVASKYHEQLSTQSLIELFESFKSFEGLFYFLGSIVNFSQDPDVHFKYIQAACKTGQIKEVERICRESNCYDPERVKNFLKEAKLTDQLPLIIVCDRFDFVHDLVLYLYRNNLQKYIEIYVQKVNPSRLPVVIGGLLDVDCSEDVIKNLILVVRGQFSTDELVAEVEKRNRLKLLLPWLEARIHEGCEEPATHNALAKIYIDSNNNPERFLRENPYYDSRVVGKYCEKRDPHLACVAYERGQCDLELINVCNENSLFKSLSRYLVRRKDPELWGSVLLESNPYRRPLIDQVVQTALSETQDPEEVSVTVKAFMTADLPNELIELLEKIVLDNSVFSEHRNLQNLLILTAIKADRTRVMEYINRLDNYDAPDIANIAISNELFEEAFAIFRKFDVNTSAVQVLIEHIGNLDRAYEFAERCNEPAVWSQLAKAQLQKGMVKEAIDSYIKADDPSSYMEVVQAANTSGNWEELVKYLQMARKKARESYVETELIFALAKTNRLAELEEFINGPNNAHIQQVGDRCYDEKMYDAAKLLYNNVSNFGRLASTLVHLGEYQAAVDGARKANSTRTWKEVCFACVDGKEFRLAQMCGLHIVVHADELEELINYYQDRGYFEELITMLEAALGLERAHMGMFTELAILYSKFKPQKMREHLELFWSRVNIPKVLRAAEQAHLWAELVFLYDKYEEYDNAIITMMNHPTDAWKEGQFKDIITKVANVELYYRAIQFYLEFKPLLLNDLLMVLSPRLDHTRAVNYFSKVKQLPLVKPYLRSVQNHNNKSVNESLNNLFITEEDYQALRTSIDAYDNFDNISLAQRLEKHELIEFRRIAAYLFKGNNRWKQSVELCKKDSLYKDAMQYASESKDTELAEELLQWFLQEEKRECFGACLFTCYDLLRPDVVLETAWRHNIMDFAMPYFIQVMKEYLTKVDKLDASESLRKEEEQATETQPIVYGQPQLMLTAGPSVAVPPQAPFGYGYTAPPYGQPQPGFGYSM

Variants of: B1
Experiment: GST pull-down, densitometry of immunoblots; lysates from asynchronously growing HeLa cells; 3-4 independent experiments; parent: 1; read off a plot

ratio to parent | Variant
~0.44 | chain 1 W108S
~0.29 | chain 1 W165S, chain 1 W169S
~0.06 | chain 1 W108S, chain 1 W111S
~0.05 | chain 1 W165S
